Here are results for one molecule from patent publication US11160869B2 (priority 2019, dated 2021).

In data set [1] the test system is IFNγ, IL-1β, IL-2, IL-6, IL-8, TNFα. The experiment in a line: Single oral capsule dose in NHP: plasma proinflammatory cytokines. In kind it is in vivo, Macaca fascicularis. On the procedure: The panel of cytokines (IFNγ, IL-1β, IL-2, IL-6, and IL-8) was evaluated using a multiplex kit available from MSD. The assays in this panel were sandwich immunoassays. The MSD plate came precoated with capture antibodies on independent and pre-defined spots, and samples were quantitated against an 8-point standard curve prepared using a mixture of the cytokines (Proinflammatory Panel 1 (human) Calibrator Blend) from MSD. The standards included 0 pg/mL and these concentration ranges: IFNγ (0.37-1500 pg/mL), IL-1β ([…]), IL-2 (0.36-1490 pg/mL), IL-6 (0.18-721 pg/mL) and IL-8 (0.14-553 pg/mL).
The MSD plate (pre-coated with capture antibodies) was washed 3 times with PBST before use. […] Following a wash step, 2×MSD Read buffer was added to the wells of the plate, and the plate read using the MSD Sector Imager 600 plate reader. […]
The purpose of the TNFα immunoassay was to quantify NHP TNFα concentration in plasma. […] Samples were quantitated using an 8-point standard curve prepared from a human TNFα calibrator that ranges in concentration from 5.6-4052 pg/mL and includes 0 pg/mL.
The biotinylated anti-NHP TNFα capture antibody was added to a MSD Small Spot Streptavidin plate and incubated for an hour at RT with shaking. […] Following a wash step, 2×MSD Read buffer was added to the wells of the plate, and the plate read using the MSD Sector Imager 600 plate reader. […]

The nature of data set [2]: Single oral capsule dose in NHP: plasma total IL-10. Type of data set: in vivo, Macaca fascicularis. The settings on record: for plasma total IL-10 Tmax: oral. An excerpt:
IL-10 delivery constructs (SEQ ID NO: 5) and caffeine were filled by weight into size-1 Capsugel V-Cap Hydroxypropyl Methylcellulose (HPMC) capsules, for oral administration. The capsules were then successively coated in a pan spray coater with three layers of polymers. The first and third layer were thin coatings of HPMC, the first to seal the crease where the capsule shells come together, and the third to minimize sticking of the capsules to each other. The second coating layer was comprised of a 50:50 mixture of Eudragit® (Evonik Industries AG) enteric acrylic polymers FS 30 D and L 30 D-55, designed to dissolve and allow the capsule to open at pH 6.5.
The MSD Small Spot IL-10 plate was washed 3 times with PBST before use. Standards were prepared in Diluent 2 (MSD Cat No R51BB), and samples diluted 2-fold in Diluent 2. Standards and diluted samples were added to the assay plate and the plate incubated for 2 hours at room temperature with shaking. The plate was washed 3 times with PBST and 1× SULFO TAG anti-huIL-10. Antibody was added to the plate before incubation for 1 hour at room temperature with shaking. Following a wash step, 2×MSD Read buffer was added to the wells of the plate and the plate is read in the MSD Sector Imager 600 plate reader. The lower limit of detection of each analyte is defined as 2.5 standard deviation above background.
IL-10 delivery construct dosing at multiple fixed doses in non-naïve adult male Macaca fascicularis was conducted by Valley Biosystems (West Sacramento, Calif.). […] Dosing groups are described in TABLE 45.
Animals were fasted until after the 3 hour blood sample collection, when food was given. For dosing, the animals were manually restrained and a bite block placed between the jaws. A pill gun containing the dosing capsule was inserted into the back of the oral cavity and the capsule released. Up to 4 capsules were administered consecutively and a small amount of water given to induce swallowing. Once the administration of the dose was confirmed, the bite block was removed and the head released.
Blood samples were collected in K2EDTA tubes from each animal pre-dose and at 0.5, 1, 2, 3, 4, 5, 6, 7, 8, and 24 hours post-dose. Animals were returned to home cages following the 2-hour sample collection. Following physical restraint, blood samples were collected via direct venous puncture using a cephalic, femoral or saphenous vein, which were processed to plasma and stored frozen at −60° C. until shipment.

The subject of a further data set is DSS-induced colitis. The data set is described as follows: DSS-induced colitis dose-response (0.3, 3, 10, 30 mg/kg): in-life, necropsy, histology. In kind it is in vivo, C57BL6/J mice. On the procedure:
DSS-induction of murine colitis was performed by Bolder BioPATH, Inc. (CO, USA). Female C57BL6/J mice (8-10 weeks old) were given 2.5% dextran sodium sulfate (w/v) (Spectrum, Lot #2DC0020) ad libitum in the drinking water from day 0 through day 7. On day 7, DSS was replaced with water, and the animals were maintained until day 10.
Colon histology was scored based on inflammation, gland loss, erosion and hyperplasia (max of 5 each), and these were totaled in the summary score. […] Five additional parameters (edema, neutrophil infiltration, mucosal thickness, lymphoid aggregate and lymphoid aggregate size) were also quantified. […] These histological results thus indicate a mild degree of local drug efficacy.

B1: IL-10 delivery construct: recombinant homodimeric fusion protein: N-terminal methionine, cholix386 domain, polyGlySer spacer, recombinant human IL-10 (protein)
chain: MVEEALNIFDECRSPCSLTPEPGKPIQSKLSIPSDVVLDEGVLYYSMTINDEQNDIKDEDKGESIITIGEFATVRATRHYVNQDAPFGVIHLDITTENGTKTYSYNRKEGEFAINWLVPIGEDSPASIKISVDELDQQRNIIEVPKLYSIDLDNQTLEQWKTQGNVSFSVTRPEHNIAISWPSVSYKAAQKEGSRHKRWAHWHTGLALCWLVPMDAIYNYITQQNCTLGDNWFGGSYETVAGTPKVITVKQGIEQKPVEQRIHFSKGNAMSALAAHRVCGVPLETLARSRKPRDLTDDLSCAYQAQNIVSLFVATRILFSHLDSVFTLNLDEQEPEVAERLSDLRRINENNPGMVTQVLTVARQIYNDYVTHHPGLTPEQTSAGAQAGGGGSGGGGSGGGGSPGQGTQSENSCTHFPGNLPNMLRDLRDAFSRVKTFFQMKDQLDNLLLKESLLEDFKGYLGCQALSEMIQFYLEEVMPQAENQDPDIKAHVNSLGENLKTLRLRLRRCHRFLPCENKSKAVEQVKNAFNKLQEKGIYKAMSEFDIFINYIEAYMTMKIRN
modifications: homodimer
Take B1: the “plasma IFNγ, IL-1β, IL-2, IL-8, IL-6” value in data set [1] (1, 4, 20.5, 82 mg oral capsules) is given as “not associated with any consistent trends”. Moreover, the “plasma TNFα” value in data set [1] (all samples) is reported as “below the limit of detection”. The “plasma total IL-10 Tmax” value in data set [2] (1 mg) was determined as 4 h; in data set [2] (4 mg), 3 h; in data set [2] (20.5 mg), 2 h; in data set [2] (82 mg) it was 2 h. The “time at which plasma total IL-10 had returned to baseline” value in data set [2] (all doses) worked out at 6 hours post-dose. The “edema width, mucosal thickness, hyperplasia in the mid region” value in the data set on DSS-induced colitis (30 mg/kg, relative to Vehicle) was “significantly improved”. For the same molecule, in the data set with DSS-induced colitis (10 and 30 mg/kg, p<0.05 vs vehicle), the colon length entry is “Significant improvement in colon length”. Also, the DSS-induced weight loss entry in the data set on DSS-induced colitis (construct 30 mg/kg, CsA 75 mg/kg, q.d. oral) was “significantly reduced DSS-induced weight loss”. The “summed histology score (inflammation, gland loss, erosion, hyperplasia)” value in the data set with DSS-induced colitis (mouse, in vivo) is reported as “did not reveal any significant improvements”.
